# Test results published in patent US11028172 (LEPU BIOPHARMA, dated 2021).
# T1: human TIGIT expressed on cells (human, UniProt Q495A1 22-244)
# T1 sequence (looked up): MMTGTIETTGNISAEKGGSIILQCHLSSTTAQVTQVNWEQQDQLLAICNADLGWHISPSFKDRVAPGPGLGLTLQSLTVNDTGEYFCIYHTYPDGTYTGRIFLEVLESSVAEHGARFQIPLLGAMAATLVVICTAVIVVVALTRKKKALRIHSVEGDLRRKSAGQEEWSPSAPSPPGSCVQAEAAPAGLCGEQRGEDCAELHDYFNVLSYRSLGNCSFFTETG
# T2: human TIGIT-His protein (human, UniProt Q495A1 22-141)
# T2 construct: Recombinant protein; also called human TIGIT-his tag; hTIGIT-His
# T2 sequence (looked up): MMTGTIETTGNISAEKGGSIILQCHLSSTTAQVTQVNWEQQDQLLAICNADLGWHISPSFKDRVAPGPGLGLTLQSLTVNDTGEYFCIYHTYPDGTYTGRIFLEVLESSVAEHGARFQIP
# T3: mouse TIGIT protein (mouse, UniProt P86176 29-148, limits assumed)
# T3 construct: Recombinant protein coated on the plate
# T3 sequence (looked up): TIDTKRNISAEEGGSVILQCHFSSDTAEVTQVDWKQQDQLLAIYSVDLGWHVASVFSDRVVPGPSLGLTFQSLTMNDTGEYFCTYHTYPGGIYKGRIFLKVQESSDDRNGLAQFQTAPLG
# T4: biotin-labeled human TIGIT protein (human, UniProt Q495A1 22-141, biotin-labeled (sites not given))
# T4 construct: also called recombinant human TIGIT
# T4 sequence (looked up): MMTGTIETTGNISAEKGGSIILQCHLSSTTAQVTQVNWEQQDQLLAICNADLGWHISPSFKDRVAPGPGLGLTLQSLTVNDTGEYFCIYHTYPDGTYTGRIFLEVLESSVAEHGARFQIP
# Assays:
# [1] = biological target: T1, human TIGIT expressed on cells; test: cell-based or functional assay
# human TIGIT-His protein [2] = biological target: T2, human TIGIT-His protein; test: ELISA, human TIGIT-His coated
# Method: To evaluate the binding activity of 76D12B10, the chimeric mAb was subjected to ELISA test. Briefly, microtiter plates were coated with human TIGIT-His protein at 0.5 µg/ml in PBS, 100µl/well at 4° C. overnight, then blocked with 150 µl/well of 1% BSA. Three-fold dilutions of 76D12B10 antibodies starting from 10 µg/ml were added to each well and incubated for 1 hour at 37° C. The plates were washed with PBS/Tween and then incubated with Goat-anti-human IgG antibody conjugated with Horse Radish Peroxidase (HRP) for 30 mins at 37° C. After washing, the plates were developed with TMB substrate and analyzed by spectrophotometer at OD 450 nm.
# (§1) ELISA testing was carried out to evaluate the binding of chimeric antibodies to human, mouse, rat, and cyno TIGIT, respectively. Briefly, microtiter plates were coated with human, mouse, rat and cyno TIGIT proteins at 0.5 µg/ml in PBS, 100 µl/well at 4° C. overnight, then blocked with 150 µl/well of 1% BSA. Three-fold dilutions of chimeric antibodies or biotinylated chimeric antibodies starting from 10 µg/ml were added to each well and incubated for 1 hour at 37° C. The plates were washed with PBS/Tween and then incubated with Goat-anti-human IgG Fab antibody conjugated with Horse Radish Peroxidase (HRP) or Streptavidin-HRP for 30 mins at 37° C. After washing, the plates were developed with TMB substrate and analyzed by spectrophotometer at OD 450 nm.
# mouse TIGIT protein = biological target: T3, mouse TIGIT protein; test: ELISA, mouse TIGIT coated at 0.5 µg/ml
# Method: as §1
# human TIGIT-His protein [3] = biological target: T2, human TIGIT-His protein; test: SPR (Biacore) affinity ranking, human TIGIT-His
# human TIGIT-His protein [4] = biological target: T2, human TIGIT-His protein; test: SPR (Biacore T200), antibody captured on CM5 chip, TIGIT-His as analyte
# Method: The binding of the 76D12B10 antibodies to recombinant TIGIT protein (human TIGIT-his tag) was tested with BIACORE™ using a capture method. The 76D12B10 mAbs was captured using CM5 chip. A series dilution of human TIGIT-his tag protein was injected over captured antibody for 1 min at a flow rate of 30 µl/min. The antigen was allowed to dissociate for 300 s. All the experiment were carried out on a Biacore T200. Data analysis was carried out using Biacore T200 evaluation software.
# [5] = biological target: T4, biotin-labeled human TIGIT protein; test: ELISA blocking assay: CD155-hFc coated, biotin-labeled human TIGIT, antibody titrated
# Method: To evaluate the blocking effects of Hu02 and Hu06 on recombinant human TIGIT to bind to its receptor CD155, an ELISA based receptor blocking assay was used.
# Briefly, microtiter plates were coated with human CD155-hFc protein at 5 µg/ml in PBS, 100 µl/well at 4° C. overnight, then blocked with 150 µl/well of 1% BSA. 50 µl biotin-labeled human TIGIT protein and 3-fold dilutions of Hu02 and Hu06 antibodies starting from 10 µg/ml at 50 µl were added to each well and incubated for 1 hour at 37° C. The plates were washed with PBS/Tween and then incubated with Streptavidin-HRP for 10 mins at 37° C. After washing, the plates were developed with TMB substrate and analyzed by spectrophotometer at OD 450 nm.
# human TIGIT-His protein [6] = biological target: T2, human TIGIT-His protein; test: ELISA, plate coated with human TIGIT-His, anti-human IgG-HRP, OD 450nm; unit taken from the axis Log[Conc.]/ng/ml
# Method: (§2) To evaluate the antigen binding activity, the humanized antibodies were subjected to ELISA test. Briefly, microtiter plates were coated with human TIGIT-his protein at 0.5 µg/ml in PBS, 100 µl/well at 4° C. overnight, then blocked with 150 µl/well of 1% BSA. Three-fold dilutions of humanized antibodies starting from 3 µg/ml were added to each well and incubated for 1 hour at 37° C. The plates were washed with PBS/Tween and then incubated with Goat-anti-human IgG antibody conjugated with Horse Radish Peroxidase (HRP) for 30 mins at 37° C. After washing, the plates were developed with TMB substrate and analyzed by spectrophotometer at OD 450 nm.
# human TIGIT-His protein [7] = biological target: T2, human TIGIT-His protein; test: as above; remark: listed apart in the source
# Method: as §2, with “Hu02 and Hu06” for “the humanized antibodies”, “0.5 hour” for “30 mins”
binder,measurement,setting,value
"76D12B10 chimeric antibody (antibody, V domains shown, Mouse variable regions of hybridoma clone 76D12B10; tested as chimeric mAb (detected with anti-human IgG); also called 76D12B10-Chimera; 76D12B10 chimera) VH: DVQLQESGPGMVKPSQSLSLTCTATGYSITSGYDWHWIRHFPGKKLEWMGFIRDSGSTVYNPSLKGRISITHDTSKNRFFLKLNSVTPEDTATYFCARGLFWYFDVWGTGTTVTVSS VL: DIQMTQSPASLSASVGETVTITCRTSENIFSYLAWYQQKQGNSPQLLVHNTKTLAEGVPSRFSGSGSGTQFSLKISNLQPEDFGSYYCQHHYGNPLTFGAGTKLELK","NFAT luciferase production, EC50",[1],1.24 nM
same,EC50,human TIGIT-His protein [2],8.57 ng/mL
same,binding result,mouse TIGIT protein,no binding
same,Kd,human TIGIT-His protein [3],0.0161 nM
same,koff,human TIGIT-His protein [3],0.000182 s⁻¹
same,kon,human TIGIT-His protein [3],1.13e+07 M⁻¹ s⁻¹
same,Kd,human TIGIT-His protein [4],0.259 nM
same,koff,human TIGIT-His protein [4],0.000326 s⁻¹
same,kon,human TIGIT-His protein [4],1.26e+06 M⁻¹ s⁻¹
same,IC50,[5],1110 ng/mL
same,EC50,human TIGIT-His protein [6],9.37 ng/mL
same,EC50,human TIGIT-His protein [7],7.6 ng/mL
